# Data taken from patent US20230203146A1.
# Molecular target: FLAG-tagged human Ang2 (human) (UniProt O15123)
# Experiment: competition ELISA: FLAG-hAng2 binding to coated hTie2-Fc
# Chain of FLAG-tagged human Ang2 (human) (O15123 19-496): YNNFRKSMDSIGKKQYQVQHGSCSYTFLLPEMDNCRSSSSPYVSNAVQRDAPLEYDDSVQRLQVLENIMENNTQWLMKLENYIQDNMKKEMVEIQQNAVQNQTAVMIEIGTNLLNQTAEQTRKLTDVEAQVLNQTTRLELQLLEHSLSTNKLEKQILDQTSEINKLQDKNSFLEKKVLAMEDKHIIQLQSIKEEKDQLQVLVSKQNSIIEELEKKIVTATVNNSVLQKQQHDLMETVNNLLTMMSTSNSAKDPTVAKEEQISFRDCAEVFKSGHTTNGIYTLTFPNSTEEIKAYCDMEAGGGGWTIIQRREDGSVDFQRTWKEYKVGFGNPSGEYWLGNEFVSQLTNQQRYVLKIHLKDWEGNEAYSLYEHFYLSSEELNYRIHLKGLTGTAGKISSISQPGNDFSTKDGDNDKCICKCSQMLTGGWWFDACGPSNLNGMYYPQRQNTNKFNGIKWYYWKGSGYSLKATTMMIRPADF
row,Binder,IC50 [nM]
1,"VHH 00912 (VHH, not shown: small tags and cut ends) VHH: EVQLVESGGGLVQPGGSLRLSCAASGLTLDDYAIGWFRQAPGKEREGVSSIRDNGGSTYYADSVKGRFTISSDNSKNTVYLQMNSLRPEDTAVYYCAAVPAGRLRYGEQWYPIYEYDAWGQGTLVTVSS",0.062
2,"VHH 00913 (VHH, not shown: small tags and cut ends) VHH: EVQLVESGGGLVQPGGSLRLSCAASGLTIDDYAIGWFRQAPGKEREGVSSIRDNGGSTYYADSVKGRFTISSDNSKNTVYLQMNSLRPEDTAVYYCAAVPAGRLRFGEQWYPIYEYDAWGQGTLVTVSS",0.042
3,"VHH 00900 (VHH, not shown: small tags and cut ends) VHH: EVQLVESGGGLVQAGGSLRLSCAVSGFTLDDYAIGWFRQAPGKEREGVSSIRDNDGSTYYADSVKGRFTISSDNDKNTVYLQMNSLKPEDTAVYYCAAVPAGRLRFGEQWYPLYEYDAWGQGTLVTVSS",0.2
4,"VHH 00907 (VHH, not shown: small tags and cut ends) VHH: EVQLVESGGGLVQPGGSLRLSCAASGITLDDYAIGWFRQAPGKEREGVSSIRDNGGSTYYADSVKGRFTISSDNSKNTVYLQMNSLRPEDTAVYYCAAVPAGRLRFGEQWYPIYEYDAWGQGTLVTVSS",0.062
5,"VHH 00909 (VHH, not shown: small tags and cut ends) VHH: EVQLVESGGGLVQPGGSLRLSCAASGITIDDYAIGWFRQAPGKEREGVSSIRDNGGSTYYADSVKGRFTISSDNSKNTVYLQMNSLRPEDTAVYYCAAVPAGRLRFGEQWYPIYEYDAWGQGTLVTVSS",0.053
6,"VHH 00902 (VHH, not shown: small tags and cut ends) VHH: EVQLVESGGGLVQAGGSLRLSCAASGFTLDDYAIGWFRQAPGKEREGVSAIRDSGGSTYYADSVKGRFTISSDNDKNTVYLQMNSLKPEDTAVYYCAAVPAGRLRFGEQWYPLYEYDAWGQGTLVTVSS",1.3
7,"VHH 00040 (VHH, not shown: small tags and cut ends) VHH: EVQLVESGGGLVQPGGSLRLSCAASGFTFDDYALGWFRQAPGKEREGVSCIRCSDGSTYYADSVKGRFTISRDNSKNTVYLQMNSLRPEDTAVYYCAASIVPRSKLEPYEYDAWGQGTLVTVSS",6.4
8,"VHH 00050 (VHH, not shown: small tags and cut ends) VHH: EVQLVESGGGLVQPGGSLRLSCAASGFTFDDYALGWFRQAPGKEREGVSCIRCSDGSTYYADSVKGRFTISSDNSKNTVYLQMNSLRPEDTAVYYCAASIVPRSKLEPYEYDAWGQGTLVTVSS",6
9,"VHH 00049 (VHH, not shown: small tags and cut ends) VHH: EVQLVESGGGLVQPGGSLRLSCAASGFTFDDYALGWFRQAAGKEREGVSCIRCSDGSTYYADSVKGRFTISSDNSKNTVYLQMNSLRPEDTAVYYCAASIVPRSKLEPYEYDAWGQGTLVTVSS",6.9
10,"VHH 00925 (VHH, not shown: small tags and cut ends) VHH: DVQLVESGGGLVQPGGSLRLSCAASGFTFDDYALGWFRQAPGKEREGVSCIRCSGGSTYYADSVKGRFTISSDNSKNTVYLQMNSLRPEDTAVYYCAASIVPRSKLEPYEYDAWGQGTLVTVSS",22.1
11,"VHH 00051 (VHH, not shown: small tags and cut ends) VHH: EVQLVESGGGLVQPGGSLRLSCAASGFTFDDYALGWFRQAAGKEREGVSCIRCSGGSTYYADSVKGRFTISSDNSKNTVYLQMNSLRPEDTAVYYCAASIVPRSKLEPYEYDAWGQGTLVTVSS",16.1
12,"VHH 00044 (VHH, not shown: small tags and cut ends) VHH: EVQLVESGGGLVQPGGSLRLSCAASGFALDYYAIGWFRQAPGKEREGVSCISSSDGITYYVDSVKGRFTISRDNSKNTVYLQMNSLRPEDTAVYYCATDSGGYIDYDCMGLGYDYWGQGTLVTVSS",0.069
13,"VHH 00929 (VHH, not shown: small tags and cut ends) VHH: EVQLVESGGGLVQPGGSLRLSCAASGFALDYYAIGWFRQAPGKEREGVSCISSSGGITYYADSVKGRFTISRDNSKNTVYLQMNSLRPEDTAVYYCATESGGYIDYDCQGLGYDYWGQGTLVTVSS",0.15
14,"VHH 00930 (VHH, not shown: small tags and cut ends) VHH: EVQLVESGGGLVQPGGSLRLSCAASGFALDYYAIGWFRQAPGKEREGVSCISSSGGITYYADSVKGRFTISRDNSKNTVYLQMNSLRPEDTAVYYCATESGGYIDYDCRGLGYDYWGQGTLVTVSS",0.19
15,"VHH 00927 (VHH, not shown: small tags and cut ends) VHH: EVQLVESGGGLVQPGGSLRLSCAASGFALDYYAIGWFRQAPGKEREGVSCISSSGGITYYADSVKGRFTISRDNSKNTVYLQMNSLRPEDTAVYYCATDSGGYIDYDCRGLGYDYWGQGTLVTVSS",0.22

# Continued by falling IC50, values first:
row,IC50 [nM],Binder
1,30.4,"VHH 00921 (VHH, not shown: small tags and cut ends) VHH: EVQLVESGGGLVQPGGSLRLSCAASGFTFDDYALGWFRQAPGKEREGVSCIRCSGGSTYYADSVKGRFTISSDNSKNTVYLQMNSLRPEDTAVYYCAASIVPRSKLEPYEYDAWGQGTLVTVSS"
2,11.9,"VHH 00039 (VHH, not shown: small tags and cut ends) VHH: EVQLVESGGGLVQPGGSLRLSCAASGFTFDDYALGWFRQAAGKEREGVSCIRCSDGSTYYADSVKGRFTISRDNSKNTVYLQMNSLRPEDTAVYYCAASIVPRSKLEPYEYDAWGQGTLVTVSS"
3,1.2,"VHH 00898 (VHH, not shown: small tags and cut ends) VHH: EVQLVESGGGLVQAGGSLRLSCAASGFTLDDYAIGWFRQAPGKEREGVSAIRDNDGSTYYADSVKGRFTISSDNDKNTVYLQMNSLKPEDTAVYYCAAVPAGRLRFGEQWYPLYEYDAWGQGTLVTVSS"
4,0.9,"VHH 00899 (VHH, not shown: small tags and cut ends) VHH: EVQLVESGGGLVQAGGSLRLSCAASGFTLDDYAIGWFRQAPGKEREGVSSIRDIDGSTYYADSVKGRFTISSDNDKNTVYLQMNSLKPEDTAVYYCAAVPAGRLRFGEQWYPLYEYDAWGQGTLVTVSS"
5,0.25,"VHH 00926 (VHH, not shown: small tags and cut ends) VHH: EVQLVESGGGLVQPGGSLRLSCAASGFALDYYAIGWFRQAPGKEREGVSCISSSGGITYYADSVKGRFTISRDNSKNTVYLQMNSLRPEDTAVYYCATDSGGYIDYDCQGLGYDYWGQGTLVTVSS"
6,0.22,"VHH 00928 (VHH, not shown: small tags and cut ends) VHH: EVQLVESGGGLVQPGGSLRLSCAASGFALDYYAIGWFRQAPGKEREGVSCISSSGGITYYADSVKGRFTISRDNSKNTVYLQMNSLRPEDTAVYYCATDSGGYIDYDCSGLGYDYWGQGTLVTVSS"
7,0.17,"VHH 00931 (VHH, not shown: small tags and cut ends) VHH: EVQLVESGGGLVQPGGSLRLSCAASGFALDYYAIGWFRQAPGKEREGVSCISSSGGITYYADSVKGRFTISRDNSKNTVYLQMNSLRPEDTAVYYCATESGGYIDYDCSGLGYDYWGQGTLVTVSS"
8,0.13,"VHH 00920 (VHH, not shown: small tags and cut ends) VHH: EVQLVESGGGLVQPGGSLRLSCAASGFALDYYAIGWFRQAPGKEREGVSCISSSGGITYYADSVKGRFTISRDNSKNTVYLQMNSLRPEDTAVYYCATDSGGYIDYDCMGLGYDYWGQGTLVTVSS"
9,0.12,"VHH 00045 (VHH, not shown: small tags and cut ends) VHH: EVQLVESGGGLVQPGGSLRLSCAASGFALDYYAIGWFRQAPGKEREGVSCISSSDGITYYADSVKGRFTISRDNSKNTVYLQMNSLRPEDTAVYYCATDSGGYIDYDCMGLGYDYWGQGTLVTVSS"
10,0.11,"VHH 00924 (VHH, not shown: small tags and cut ends) VHH: DVQLVESGGGLVQPGGSLRLSCAASGFALDYYAIGWFRQAPGKEREGVSCISSSGGITYYADSVKGRFTISRDNSKNTVYLQMNSLRPEDTAVYYCATDSGGYIDYDCMGLGYDYWGQGTLVTVSS"
11,0.095,"VHH 00046 (VHH, not shown: small tags and cut ends) VHH: EVQLVESGGGLVQPGGSLRLSCAASGFALDYYAIGWFRQAPGKEREGVSCISSSGGITYYVDSVKGRFTISRDNSKNTVYLQMNSLRPEDTAVYYCATDSGGYIDYDCMGLGYDYWGQGTLVTVSS"
12,0.089,"VHH 00903 (VHH, not shown: small tags and cut ends) VHH: EVQLVESGGGLVQPGGSLRLSCAASGFTLDDYAIGWFRQAPGKEREGVSSIRDNGGSTYYADSVKGRFTISSDNSKNTVYLQMNSLRPEDTAVYYCAAVPAGRLRFGEQWYPIYEYDAWGQGTLVTVSS"
13,0.079,"VHH 00905 (VHH, not shown: small tags and cut ends) VHH: EVQLVESGGGLVQPGGSLRLSCAASGFTIDDYAIGWFRQAPGKEREGVSSIRDNGGSTYYADSVKGRFTISSDNSKNTVYLQMNSLRPEDTAVYYCAAVPAGRLRFGEQWYPIYEYDAWGQGTLVTVSS"
14,0.062,"VHH 00904 (VHH, not shown: small tags and cut ends) VHH: EVQLVESGGGLVQPGGSLRLSCAASGFTLDDYAIGWFRQAPGKEREGVSSIRDNGGSTYYADSVKGRFTISSDNSKNTVYLQMNSLRPEDTAVYYCAAVPAGRLRYGEQWYPIYEYDAWGQGTLVTVSS"
15,0.059,"VHH 00911 (VHH, not shown: small tags and cut ends) VHH: EVQLVESGGGLVQPGGSLRLSCAASGLTLDDYAIGWFRQAPGKEREGVSSIRDNGGSTYYADSVKGRFTISSDNSKNTVYLQMNSLRPEDTAVYYCAAVPAGRLRFGEQWYPIYEYDAWGQGTLVTVSS"
16,0.045,"VHH 00906 (VHH, not shown: small tags and cut ends) VHH: EVQLVESGGGLVQPGGSLRLSCAASGFTIDDYAIGWFRQAPGKEREGVSSIRDNGGSTYYADSVKGRFTISSDNSKNTVYLQMNSLRPEDTAVYYCAAVPAGRLRYGEQWYPIYEYDAWGQGTLVTVSS"
17,0.042,"VHH 00910 (VHH, not shown: small tags and cut ends) VHH: EVQLVESGGGLVQPGGSLRLSCAASGITIDDYAIGWFRQAPGKEREGVSSIRDNGGSTYYADSVKGRFTISSDNSKNTVYLQMNSLRPEDTAVYYCAAVPAGRLRYGEQWYPIYEYDAWGQGTLVTVSS"
18,0.037,"VHH 00914 (VHH, not shown: small tags and cut ends) VHH: EVQLVESGGGLVQPGGSLRLSCAASGLTIDDYAIGWFRQAPGKEREGVSSIRDNGGSTYYADSVKGRFTISSDNSKNTVYLQMNSLRPEDTAVYYCAAVPAGRLRYGEQWYPIYEYDAWGQGTLVTVSS"
